# doi:10.1101/2021.12.01.470723
# Where two headings read alike, the source gives them in different places.
# How the values were obtained:
# [1] = target: Asp105 (UniProt position 105, GLVVYDYQQLL); test: CD spectroscopy; conditions: 25 °C; Free folded domain, 4.2-10 µmol/L protein
# [2] = target: rh wildtype Bri2 BRICHOS (human) (UniProt Q9Y287); test: SEC
# [3] = target: rh wildtype Bri2 BRICHOS (human) (UniProt Q9Y287); test: SEC; remark: listed apart in the source
Substance,pKa [1],stoichiometry N [2],stoichiometry N [3]
"Prosurfactant protein C (proSP-C) BRICHOS domain, wild type (Homo sapiens)",about 6.1,,
rh wildtype Bri2 BRICHOS (from UniProt Q9Y287 113-231) (domain or fragment),,2,2
